Test results taken from publication PMC7781312 (bioRxiv, 2021).

Biological target: SARS-CoV-2 2P S ectodomain trimer (SARS-CoV-2 (YP_009724390), UniProt P0DTC2, stabilised)
Test: BLI

B1: B6 monoclonal antibody (recombinant IgG with human constant regions) (antibody, V domains shown)
VH: EVQLQQSGPVLVKPGASVRMSCKASGYTITDYYLNWVKQSHGKSLEWLGVLNPYSGGSLYSQTFKGKATLTVDRSSSTAYLELNSLTSEDSAVYYCARQLGRGNGLDYWGQGTSVTVSS
VL: NIMMTQSPSSLAVSAGEKVTMSCKSSQSVLHSSDQKNYLAWYQQKPGQSPKLLIYWASTRESGVPDRFTGSGSGTDFTLTISSVQAEDLAVYFCHQYLSSYTFGGGTKLEIK
**Q.** Does B1 bind?
**A.** binds
